From the supplement of paper PMC9732359
± gives the uncertainty stated by the source.

Test: protein stability index of a GFP-peptide fusion (yeast GPS) (PSI 1-4); higher = more stable; sorted into four equal gates, so the index is relative within each strain
Settings: doa10∆
Summary of the method: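 Tiled 17-residue yeast protein peptides were fused downstream of GFP in a plasmid that also expresses Cherry, and the pooled library was carried in yeast. Mid-log cultures in leucine-free medium were sorted into four equal gates by GFP/Cherry fluorescence ratio, and plasmids from each gate were PCR-amplified and Illumina-sequenced, with reads assigned to strains by barcodes. The protein stability index for each peptide was each gate's read frequency times its gate number, summed.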

Sequence | protein stability index
VHMYHKSLALLGYNFDG [SNF5] | 2.26 ± 0.059
VHNTVAAGNASSLPPGE [SNF5] | 2.82 ± 0.094
VIEAKINHEDGFIETTE [RPN3] | 1.17 ± 0.16
VIFLSSLLTLVGSVTYQ [YJL039C/NUP192] | 1.39 ± 0.14
VIQDEVLAHRIGLVPLK [RPC40] | 2.94 ± 0.27
VIRDSVTYTEHAKRKTV [HHF1] | 1.8 ± 0.081
VISSGPLAAGNFVSEKG [RPC53] | 2.81 ± 0.093
VIYRGPEPSHIDQVMMS [RET1] | 3.01 ± 0.085
VKADVEKSLLPKIETNV [ISW2] | 3.03 ± 0.086
VKDWLYDSRPLEEDSKK [PRP8] | 2.95 ± 0.19
VKEIVLPLFYDLLNAAS [IRR1] | 2.36 ± 0.045
VKKGPVRLPTKVLKIST [RPS20] | 2.22 ± 0.062
VKLTYNSPSSALRALQE [YDL088C/ASM4] | 2.42 ± 0.058
VKPHDEGSKSHPFGHAL [RPL27A] | 2.95 ± 0.064
VKPQYDEIHIPAPSKPV [BRR2] | 2.59 ± 0.097
VKQYNKKWPQFYAAVQK [SIN4] | 1.49 ± 0.15
VKRRRDMLEHINLAMNE [SRB4] | 1.3 ± 0.096
VKVSAAAGKANKQFAKF [RPS11A] | 2.64 ± 0.081
VLAAQSIGEPATQMTLN [RPO21] | 2.69 ± 0.055
VLAGDTRNITDYSINSR [PRE7] | 2.93 ± 0.09

Sequence | protein stability index
VLCLTRSSYMLELVNTP [YCG1] | 1.58 ± 0.059
VLDHQRAIPFRRFNSSI [RPL17A] | 2.69 ± 0.095
VLFITPDIVGHEFTLSF [BRR2] | 1.87 ± 0.049
VLGIKVKIMRDPAKSRT [RPS3] | 2.67 ± 0.067
VLKSHSNDFEEGSTIRY [YMR129W/POM152] | 2.44 ± 0.075
VLNMLYWVPDWDGVIPT [RPO21] | 2.92 ± 0.067
VLPIFTTVFFSRQKSGL [YML031W/NDC1] | 1.53 ± 0.075
VLQPLLPRELPKLLDAL [SNU114] | 2.15 ± 0.072
VLRLRGALVDRTQPWSI [RPS0A] | 2.65 ± 0.086
VLSDQVGSEKVLQDLRL [YJL039C/NUP192] | 3.12 ± 0.2
VLSIPPANHLQSDFCLS [YGL100W/SEH1] | 2.94 ± 0.11
VLSLGRPNLPTHNFKLS [RGR1] | 3.04 ± 0.17
VLTAAGVERLIFYPDEY [PRE3] | 2.78 ± 0.11
VLVSMGSSNKAVVQTVK [YJL039C/NUP192] | 1.33 ± 0.26
VMPVPNVRSSVLQKVIE [SKP1] | 2.33 ± 0.05
VMRNTYNTRKNAVTAAA [GAL11] | 1.78 ± 0.045
VMWGKVTRTHGNSGVVR [RPL33A] | 2.83 ± 0.071
VNCLELLINTNFNKFFK [PCI8] | 1.77 ± 0.045
VNDNDERAARVVKGRVE [RPO31] | 3.17 ± 0.16
VNDVELAFKKNEMLLKR [MTW1] | 3.24 ± 0.19

Same assay, conditions: pdr5∆

Sequence | protein stability index
VHMYHKSLALLGYNFDG [SNF5] | 1.78 ± 0.046
VHNTVAAGNASSLPPGE [SNF5] | 2.75 ± 0.071
VHPVNEREPVPLGILHI [RRP45] | 2.63 ± 0.16
VIEAKINHEDGFIETTE [RPN3] | 1.37 ± 0.11
VIFKIRDRTSGQKLLAI [SRB4] | 3.17 ± 0.2
VIFLSSLLTLVGSVTYQ [YJL039C/NUP192] | 1.21 ± 0.14
VIRDSVTYTEHAKRKTV [HHF1] | 1.4 ± 0.074
VISSGPLAAGNFVSEKG [RPC53] | 3.13 ± 0.11
VIYRGPEPSHIDQVMMS [RET1] | 3.23 ± 0.13
VKADVEKSLLPKIETNV [ISW2] | 3.18 ± 0.074
VKDWLYDSRPLEEDSKK [PRP8] | 2.91 ± 0.24
VKEIVLPLFYDLLNAAS [IRR1] | 2.48 ± 0.052
VKKGPVRLPTKVLKIST [RPS20] | 2.22 ± 0.085
VKLTYNSPSSALRALQE [YDL088C/ASM4] | 2.44 ± 0.066
VKPHDEGSKSHPFGHAL [RPL27A] | 2.97 ± 0.053
VKPQYDEIHIPAPSKPV [BRR2] | 2.59 ± 0.12
VKQYNKKWPQFYAAVQK [SIN4] | 1.93 ± 0.1
VKRRRDMLEHINLAMNE [SRB4] | 1.33 ± 0.12
VKVSAAAGKANKQFAKF [RPS11A] | 2.88 ± 0.074

Sequence | protein stability index
VLAAQSIGEPATQMTLN [RPO21] | 3 ± 0.051
VLAGDTRNITDYSINSR [PRE7] | 3.29 ± 0.075
VLCLTRSSYMLELVNTP [YCG1] | 2.03 ± 0.2
VLDHQRAIPFRRFNSSI [RPL17A] | 2.39 ± 0.14
VLFITPDIVGHEFTLSF [BRR2] | 2.29 ± 0.049
VLGIKVKIMRDPAKSRT [RPS3] | 2.78 ± 0.054
VLKSHSNDFEEGSTIRY [YMR129W/POM152] | 2.8 ± 0.099
VLNMLYWVPDWDGVIPT [RPO21] | 2.63 ± 0.066
VLPIFTTVFFSRQKSGL [YML031W/NDC1] | 1.24 ± 0.082
VLQPLLPRELPKLLDAL [SNU114] | 2.2 ± 0.11
VLRLRGALVDRTQPWSI [RPS0A] | 2.44 ± 0.072
VLSIPPANHLQSDFCLS [YGL100W/SEH1] | 2.44 ± 0.1
VLTAAGVERLIFYPDEY [PRE3] | 2.94 ± 0.093
VLVSMGSSNKAVVQTVK [YJL039C/NUP192] | 1.5 ± 0.15
VMPVPNVRSSVLQKVIE [SKP1] | 2.43 ± 0.052
VMRNTYNTRKNAVTAAA [GAL11] | 1.94 ± 0.051
VMWGKVTRTHGNSGVVR [RPL33A] | 2.94 ± 0.075
VNAITVAQQQVQRQIEQ [SNF5] | 3.14 ± 0.2
VNCLELLINTNFNKFFK [PCI8] | 1.88 ± 0.048
